These results are taken from patent US20200399385A1 (Bristol-Myers Squibb, published 2020).

The target in assay [1] is T1, human OX40 on cells (human, UniProt P43489 29-277).
T1 sequence: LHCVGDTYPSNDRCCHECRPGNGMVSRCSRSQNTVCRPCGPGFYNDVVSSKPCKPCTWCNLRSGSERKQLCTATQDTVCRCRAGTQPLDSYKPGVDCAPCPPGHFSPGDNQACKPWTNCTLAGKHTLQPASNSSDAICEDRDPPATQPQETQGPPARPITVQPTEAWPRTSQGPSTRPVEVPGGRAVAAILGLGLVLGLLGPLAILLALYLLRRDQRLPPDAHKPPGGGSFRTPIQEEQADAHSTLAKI
The experiment in a line: cell-based or functional assay.

The target of assay [2] is T2, cynomolgus OX40 on cells (cynomolgus, UniProt P43489 29-277 (human entry)).
T2 construct: also called cynoOX40-CHO
T2 chain: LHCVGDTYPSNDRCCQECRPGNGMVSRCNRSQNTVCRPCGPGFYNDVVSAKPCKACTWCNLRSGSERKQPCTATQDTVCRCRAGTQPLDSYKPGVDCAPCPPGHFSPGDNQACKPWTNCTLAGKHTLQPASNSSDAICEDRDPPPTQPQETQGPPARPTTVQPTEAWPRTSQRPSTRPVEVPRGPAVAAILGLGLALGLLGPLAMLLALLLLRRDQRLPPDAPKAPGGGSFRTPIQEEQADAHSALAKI
The experiment in a line: FACS, activated cyno T cells; mean ± SD, n=4. As to the method:
(§1) Briefly, cells were activated for several days before the binding assay in order to induce OX40 expression. Total leukocytes were isolated from cynomolgus macaque peripheral blood by lysis of red blood cells using an ammonium chloride buffer. The leukocytes were then cultured for four to five days with in flasks pre-coated with anti-human CD3 plus anti-human CD28 antibodies that cross-react with cynomolgus macaque, in the presence of recombinant human IL-2, in order to expand and activate T cells. On the day of the assay, the cells were harvested and stained with a titration of each anti-OX40 antibody. Bound antibodies were detected with a fluorescently conjugated anti-human IgG polyclonal secondary antibody, and the cells were co-stained for CD4 and CD25 to detect activated CD4 T cells. The fluorescence intensity of the staining was measured using a FACSCanto II flow cytometer (Becton Dickinson). The geometric mean fluorescence intensity (GMFI) or median fluorescence intensity (MedFI) of anti-OX40 antibody staining was calculated for the CD4+CD25+ population (FACSDiva software). Dose-response curves were generated and EC50s for antibody binding were calculated using GraphPad Prism software.
For orientation: A flow cytometer gives signals particle by particle.

Assay [3] deals with T1, human OX40 on cells. Briefly: FACS, activated human T cells; mean ± SD, n=3. How it is done: Cells were activated for several days before the binding assay in order to induce OX40 expression. Briefly, PBMCs were cultured for three or four days with magnetic beads coated with anti-human CD3 plus anti-human CD28, in the presence of recombinant human IL-2. On the day of the assay, the beads were removed and the cells stained with a titration of each anti-OX40 antibody. Bound antibodies were detected with a fluorescently conjugated anti-human IgG polyclonal secondary antibody, and the cells were co-stained for CD4 and CD25 to detect activated CD4 T cells. The fluorescence intensity of the staining was measured using a FACSCanto II flow cytometer (Becton Dickinson). The geometric mean fluorescence intensity (GMFI) or median fluorescence intensity (MedFI) of anti-OX40 antibody staining was calculated for the CD4+CD25+ population (FACSDiva software). EC₅₀s for antibody binding were calculated using GraphPad Prism software.

Assay [4] concerns the target T3, his-tagged soluble human OX40 (huOX40-6xhis) (human, UniProt P43489 29-214).
T3 construct: made in-house; also called Human-OX40-6XHIS; hOX40; not shown: hexahistidine tag
T3 sequence: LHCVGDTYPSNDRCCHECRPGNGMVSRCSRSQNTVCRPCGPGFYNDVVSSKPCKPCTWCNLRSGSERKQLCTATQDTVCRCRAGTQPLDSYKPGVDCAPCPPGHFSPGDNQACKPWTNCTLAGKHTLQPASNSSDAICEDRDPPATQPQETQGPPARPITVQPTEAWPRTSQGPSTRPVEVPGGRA
The experiment in a line: SPR, mAb captured on anti-human CH1, OX40-6XHIS analyte, 1:1 fit. As to the method:
The affinity of several OX40 antibodies for soluble human OX40 was tested by SPR analysis. […] Human-OX40-6XHIS antigen in either a single concentration of 400 nM or a 1:2 serial dilution from 400 nM was used. Experiments were carried out on BIACORE® T200 or BIACORE® 3000 SPR instruments. Data was fit to a 1:1 model.

For assay [5], the target named is T1, human OX40 on cells. Briefly: FACS, blocking of OX40L-His (0.2 µg/mL) binding to hOX40-293 cells. How it is done: Briefly, 293 cells stably transfected with human OX40 were first pre-incubated with varying concentrations of anti-OX40 antibodies. […] The fluorescence intensity of the staining was measured using a FACSCanto II flow cytometer (Becton Dickinson).

The target of assay [6] is T1, human OX40 on cells. Briefly: FACS competition on HT1080-hOX40 cells against APC-OX40.1 (FL2 MFI); the table gives no unit, axis 'Ab conc nM'. How it is done:
(§2) This experiment was performed to test the cross-blocking properties of various anti-OX40 antibodies to assess binding specificities. […] Cells were washed and if necessary further incubated in the presence of streptavidin-APC conjugate under the same conditions. After the final wash, cells were analyzed on a FACSCanto flow cytometer (BD Bioscience, San Jose, Calif.). Mean fluorescence intensity (MFI) signal was proportional to bound conjugated antibody.

The target in assay [7] is T1, human OX40 on cells. The experiment in a line: FACS competition on hOX40-293 cells against biotin-OX40.5 (spike biotOX.5 @ 0.4 ug/mL, streptavidin-APC); partial inhibition, FL4-MFI falls from about 8700 to about 6400; the table gives no unit, axis in nM. How it is done:
as §2

The target of assay [8] is T1, human OX40 on cells. Briefly: cell-based or functional assay. The source holds these as a separate data set.
For assay [9], the target named is T2, cynomolgus OX40 on cells. Briefly: FACS, activated cyno CD4 T cells. As to the method:
as §1
The same experiment was performed with anti-OX40 antibodies with variable region substitutions.

The target in assay [10] is T1, human OX40 on cells. The experiment in a line: FACS competition on hOX40-293 cells against biotin-OX40.5 (spike biotOX.5 @ 0.4 ug/mL, streptavidin-APC); FL4-MFI falls from about 8700 to about 3800; the table gives no unit, axis in nM. As to the method: as §2
The target in assay [11] is T1, human OX40 on cells. The experiment in a line: FACS competition on hOX40-293 cells against biotin-OX40.4 (spike biotOX.4 @ 0.4 ug/mL, streptavidin-APC); partial inhibition, FL4-MFI falls from about 12700 to about 8800 at about 130 nM; the table gives no unit, axis in nM. As to the method:
as §2

Assay [12] addresses T1, human OX40 on cells. Briefly: FACS competition on hOX40-293 cells against biotin-OX40.5 (spike biotOX.5 @ 0.4 ug/mL, streptavidin-APC); FL4-MFI falls from about 8700 to about 2900; the table gives no unit, axis in nM. As to the method:
as §2

The target in assay [13] is T1, human OX40 on cells. Briefly: FACS competition on hOX40-293 cells against biotin-OX40.4 (spike biotOX.4 @ 0.4 ug/mL, streptavidin-APC); partial inhibition, FL4-MFI falls from about 12700 to about 6000; the table gives no unit, axis in nM. As to the method: as §2
Assay [14] deals with T2, cynomolgus OX40 on cells. The experiment in a line: FACS, activated cyno T cells; mean ± SD, n=3. How it is done:
as §1

For assay [15], the target named is T1, human OX40 on cells. Briefly: FACS, activated human T cells; mean ± SD, n=5.
Assay [16] addresses T1, human OX40 on cells. The experiment in a line: immunohistochemistry, HT1080/huOX40 cells. From the text:
Fresh, frozen and/or OCT-embedded human tissues were purchased from multiple commercial tissue networks/vendors (Asterand Inc. Detroit, Mich.; Cooperative Human Tissue Network, Philadelphia, Pa.; ProteoGenex Inc, Culver City, Calif.). […] A nonspecific fluoresceinated human IgG1 was used as isotype control antibody. HT1080 cells stably expressing human OX40 (HT1080/huOX40) and hyperplasic human tonsil tissue sections were used as positive control cells and tissues. […] Stained slides were evaluated under a light microscope.

The EC50 is the concentration that produces a half-maximal response. As a reminder, the Kd is the equilibrium constant for the complex coming apart. A low value points to a tighter complex. Usually koff stands for the rate constant with which the complex falls apart. A word on the kon: it is the rate constant with which the complex forms. The low end stands for slow association, the high end for fast association. In general, IC50 refers to the midpoint of a concentration-inhibition curve.

Where a chain is given by its changes, count along the chain named. Where “and” joins values, the source holds several entries; their conditions need not be identical. Identical values can stand only once.

B1: 3F4 (antibody, V domains shown)
VH: QVQLVQSGAEVKKPGASVKVSCKASGNTFTSYDVNWVRQATGQGLEWMGWMNPNSGNTGYAPKFQGRVTMTRNTSISTAYMELSSLRSEDTAVYYCARIYSSSYNWFDPWGQGTLVTVSS
VL: EIVLTQSPATLSLSPGERATLSCRASQSVSSYLAWYQQKPGQAPRLLIYDASNRATGIPARFSGSGSGTDFTLTISSLEPEDFAVYYCQQRSNWPLTFGGGTKVEIK
notes: also called 3F4.G11.D2; 3F4.G11
Take B1: the “Proliferation EC50, CD4 T cells + CHO-CD3-CD32A” value (from here on “Proliferation EC50”) with human OX40 on cells [1] was 0.016 nM. Further, the EC50 with cynomolgus OX40 on cells [2] worked out at 0.37 nM; in the assay with human OX40 on cells [3], 0.19 nM; with human OX40 on cells [5], 0.54 nM; with human OX40 on cells [7], 3.71 nM. For the same molecule, in assay [4], binding was put at a Kd of 7.13 nM. Besides, the koff in assay [4] turned out to be 0.000379 s⁻¹. In addition, in assay [4], the kon was 53100 M⁻¹ s⁻¹. The IC50 with human OX40 on cells [6] was 0.706 nM.

B2: 20C1 (antibody, V domains shown)
VH: EAQLVQSGGGLVHPGGSLRLSCADSGFTFSSYAMYWVRQAPGKGLEWVSAIDTDGGTFYADSVRGRFTISRDNAKNSLYLQMNGLRAEDMAVYFCARLGEGYFFDYWGQGTLVTVSS
VL: B1 VL with L96P
notes: also called 20C1.F2.D1; 20C1.F2
Turning to B2, in the assay with human OX40 on cells [8], the “IL-2 EC50, SEB PBMC, soluble crosslinker” value is 1.3 to 2 nM. Also, in the assay with human OX40 on cells [1], the “Proliferation EC50” value worked out at 0.008 nM. Besides, the EC50 amounted to 0.068 nM with cynomolgus OX40 on cells [9]; 0.17 nM with cynomolgus OX40 on cells [2]; 0.1 nM in the assay with human OX40 on cells [3]; 0.34 nM with human OX40 on cells [5]; 6.13 nM with human OX40 on cells [10]; 12.1 nM with human OX40 on cells [11]. Further, binding in assay [4] was put at a Kd of 3.22 nM. Further, in [4], the koff worked out at 0.000209 s⁻¹. For the same molecule, in assay [4], the kon was determined as 64800 M⁻¹ s⁻¹.

B3: 20B3 (antibody, V domains shown)
VH: EVQLVESGGGLVQPGGSLRLSCAASGFTFSSYDMHWVRQTTGKGLEWVSVIGTAGDTYYPGSVKGRFTISRENAKNSLYLQMNSLRAGDTAVYYCARGGMGNYFDYWGQGTLVTVSS
VL: B1 VL
notes: also called 20B3.G12.A2; 20B3.G2
For B3, the “Proliferation EC50” value in the assay with human OX40 on cells [1] came to 0.008 nM. Moreover, the EC50 with cynomolgus OX40 on cells [9] is 1.4 nM and 1 nM to 1.5 nM (2×); with cynomolgus OX40 on cells [2] it was 1.18 nM; with human OX40 on cells [3], 0.34 nM; with human OX40 on cells [5], 0.93 nM; in the assay with human OX40 on cells [12], 4.54 nM; with human OX40 on cells [13], 3.86 nM. In addition, in [4], the Kd is 3.71 nM. For the same molecule, in assay [4], the koff was found to be 0.000201 s⁻¹. Further, the kon in [4] was found to be 54200 M⁻¹ s⁻¹. Besides, the IC50 with human OX40 on cells [6] was found to be 1.17 nM.

B4: OX40.16 (antibody, human IgG1, kappa, V domains shown)
VH: B2 VH with A2V, H13Q, D24G, G84S, M90T
VL: EIVLTQSPATLSLSPGERATLSCRASQSVSSYLAWYQQKPGQAPRLLIYDASNRATGIPARFSGSGSGTDFTLTISSLEPEDFAVYYCQQRSNWPPTFGGGTKVEIKR
Turning to B4, the “EC50 (NK92 cell-mediated ADCC, calcein release)” value in the assay with human OX40 on cells [8] was 4 ng/mL. Also, in the assay with human OX40 on cells [1], the “IFNγ EC50, CD4 T cells + CHO-CD3-CD32A” value is 0.044 nM and the “Proliferation EC50” value was found to be 0.017 nM. Also, the EC50 in the assay with cynomolgus OX40 on cells [14] amounted to 0.06 nM. The EC50 with human OX40 on cells [15] came out at 0.06 nM.

B5: OX40.20 (antibody, human IgG1, kappa, V domains shown)
VH: B2 VH with A2V, H13Q, D24G, D54S, G84S, M90T
VL: B4 VL
Take B5: the binding result with human OX40 on cells [16] was “binds”.
